In patent publication US9809627B2, “Cyclized transthyretin peptide and methods of use therefor” (Wisconsin Alumni Research Foundation, priority 2014, dated 2017):
“Also recorded” adds a separate entry of the source. Where no end group is shown, it is not given here. [ ]: non-standard residue; d: D form.

Legend:
Aβ (1-40) [1] = biological target: T1, Aβ (1-40) (Homo sapiens, UniProt P05067); assay: Filtration/sedimentation assay of Aβ aggregation; format: biochemical
T1 construct: Aβ (1-40) was purchased from Anaspec, Inc. (Fremont, Calif.) as lyophilized powder; purchased Anaspec, Inc. (Fremont, Calif.)
Experimental: (§1) Aβ (1-40) was purchased from Anaspec, Inc. (Fremont, Calif.) as lyophilized powder. For dynamic light scattering, ThT fluorescence assay, TEM, NTA measurement and filtration/sedimentation assay, Aβ was dissolved in 50% ACN, re-lyophilized, and reconstituted in 8M urea at 12 mg/mL. Aβ stock was then aliquoted, snap-frozen in ethanol with dry ice, and stored at −80° C. For PICUP and proteolytic fragmentation analysis, lyophilized Aβ was dissolved in prechilled hexafluoroisopropanol (HFIP, Acros Organics, Geel, Belgium), aliquoted, dried and stored at −20° C. as previously described (Cho et al., 2014). Aβ sample was prepared right before use by dissolving dried peptides in 50 mM NaOH and diluting into phosphate-buffered saline (PBSA) (10 mM Na2HPO4/NaH2PO4, 150 mM NaCL and 0.02% NaN3 (pH 7.4)) to 30 μM as previously described (Cho et al., 2014).
Aβ alone (30 μM) or with CG3 (3 μM) was prepared in PBSA and incubated for 24 hr at 37° C. For filtration, 175 μL of sample was filtered through 0.45 μm filter. For sedimentation, 100 μL of sample was transferred onto a separate tube and centrifuged for 30 min at 19,500 ref. The supernatant (80%) was removed. Concentrations of untreated, filtered, and centrifuged samples were measured by BCA assay (Pierce).

[2] = Peptide self-aggregation by light scattering; format: physicochemical; conditions: 80 μM, 37° C., after 1 hr of incubation
Experimental: To further probe for self-aggregation, G16, LG3, and CG3 were incubated at 80 μM at 37° C. and analyzed by light scattering.

[3] = system: primary cortical neuronal cells; assay: In vitro cellular toxicity of Aβ (1-42), MTS assay; format: cell-based, mice; conditions: for protection against Aβ toxicity: 10 μM Aβ
Experimental: Aβ toxicity was assessed as described in detail previously (Yang et al., 2013; Cho et al., 2014). Briefly, the primary cortical neuronal cells were cultured from embryonic 15.5 day mice and were maintained in neurobasal media till they are matured. Aβ (1-42) (American Peptide, Sunnyvale, Calif.) at 1 mg/mL in PBS was diluted to 10 μM without or with peptides as previously described (Cho et al., 2014). At 6 days in vitro (DIV), the cells were treated with either Aβ alone or Aβ incubated with different doses of mTTR and peptides. Appropriate vehicle and controls were run along with the treatments. At 8 DIV, the neurons were incubated with MTS reagent (Promega) as per manufacturer protocol for 2-3 hrs and absorbance was measured at 490 nm.

Aβ toxicity = conditions: cited from earlier work
Aβ (1-40) [4] = biological target: T1, Aβ (1-40); assay: Dynamic light scattering of Aβ aggregate growth; format: biochemical; conditions: 140 μM Aβ
Experimental: as §1
Aβ stock in 8M urea prepared as stated above was thawed and sonicated for 2 min before being diluted into PBSA. Aβ alone (140 μM) or mixed with peptides (14 μM) was filtered through […] filter directly into a light scattering cuvette and placed into a bath of the index-matching solvent decahydronaphthalene with temperature controlled to 37° C. Light scattering data were collected using a Brookhaven BI-200SM system (Brookhaven Instruments Corp., Holtsville, N.Y.) and an Innova 90C-5 argon laser (Coherent, Santa Clara, Calif.) operating at 488 nm and 150 mW. The average scattering intensity at 90° was measured over 10 hr and data were normalized to the total mass concentration. The z-averaged hydrodynamic diameter was determined from the autocorrelation function using the method of cummulants.

Aβ (1-40) [5] = biological target: T1, Aβ (1-40); assay: Proteolytic fragmentation assay of Aβ with peptides (Proteinase K); format: binding; conditions: 3:1 molar excess of peptides, detection by 4G8
Experimental: as §1
The proteolytic fragmentation assay of Aβ with peptides was performed as previously described in detail (Cho et al., 2014). Briefly, Aβ alone (20 μM) or with peptide (60 μM) was incubated for 24 hr at 37° C. Proteinase K (Promega, Madison, Wis.) was added to the samples at a final concentration of 0.5 μg/mL and samples were dotted onto a 0.45 μm nitrocellulose membrane (Pierce) after incubation for 0, 5, 10, 20, 30, 40, 50, 60, 90 and 120 min. Membranes were then reacted with monoclonal antibodies against Aβ (6E10, Covance, against Aβ (3-8) and 4G8 against Aβ (18-22)) and visualized.

Aβ (1-40) [6] = biological target: T1, Aβ (1-40); assay: Transmission electron microscopy of Aβ aggregates; format: biochemical; conditions: 48 h at 37° C., 28 μM Aβ, 2.8 μM peptide
Experimental: as §1
Aβ alone (28 μM) or with peptides (G16 or CG3 at 2.8 μM) were prepared in PBSA and incubated for 48 hr at 37° C. A drop of sample was placed on a pioloform-coated grid and stained with methylamine tungstate stain. Images were taken with a Philips CM120 scanning transmission electron microscope (FEI Corp., Eindhoven, The Netherlands).

Aβ (1-40) [7] = biological target: T1, Aβ (1-40); assay: Photoinduced cross-linking (PICUP) of Aβ and peptides; format: binding; conditions: for interaction with Aβ (shift in cross-linked Aβ size distribution): pre-aggregated Aβ, 10:1 molar excess of Aβ, Western blot 4G8
Experimental: as §1
Aβ prepared with HFIP/NaOH treatment at 30 μM as described was mixed with peptides to a final concentration of 24 μM Aβ and 2.4 μM peptides. Aβ stock was used immediately (freshly prepared) or after incubation for 24 hr at 37° C. (1 day pre-aggregated). Samples of Aβ with and without peptides were incubated for 1 hr at 37° C. and cross-linked by photo-induced cross-linking method as previously described (Cho et al., 2014). Cross-linked samples were then separated on a 10-20% Tris-Tricine gradient gel (Iinvotrogen, Carlsbad, Calif.), transferred onto a 0.2 μm poly(vinylidene difluoride) (PVDF) membrane and detected by monoclonal mouse anti-Aβ antibody 4G8 (Covance, Princeton, N.J.) as previously described (Cho et al., 2014).

Aβ (1-40) [8] = biological target: T1, Aβ (1-40); assay: Thioflavin T (ThT) fluorescence assay of Aβ aggregation; format: biochemical; conditions: 28 μM Aβ; for ThT fluorescence intensity of Aβ with peptide: 2.8 μM peptide; for inhibition of ThT fluorescence increase: up to 48 h, 2.8 μM peptide or mTTR
Experimental: as §1
ThT stock solutions were prepared in PBSA and filtered through 0.22 μm filter. The concentration of ThT was measured using an extinction coefficient of 26,620 M^−1 cm^−1 at 416 nm and the stock solution was diluted to 10 μM in PBSA prior to the measurement. Aβ alone (28 μM) and with peptides (2.8 μM) or mTTR (2.8 μM) were prepared in PBSA and incubated for 48 hr at 37° C. After 1, 5, 24 and 48 hr of incubation, 10 μL of each sample was mixed with 130 μL of 10 μM ThT and analyzed. ThT fluorescence emission was measured using a QuantaMaster spectrofluometer (PTI, Birmingham, N.J.), with excitation at 440 nm and emission spectra recorded from 460 to 500 nm. Three serial spectra were averaged for each sample and the background signal of ThT in PBSA was subtracted from the averaged data. Fluorescence intensity at a wavelength of 480 nm was compared.

[9] = Peptide self-association by PICUP cross-linking and gel electrophoresis; format: physicochemical; conditions: PICUP cross-linking, gel electrophoresis
Experimental: Peptides were also cross-linked by PICUP and analyzed for self-association. Twenty microliters of peptides at 36 μM in PBSA was incubated for 1 hr at 37° C. and cross-linked. Cross-linked samples were then heated at 95° C. for 5 min and separated on a 10-20% Tris-Tricine gradient gel. Peptides were visualized by silver staining (SilverStain Kit, Pierce, Rockford, Ill.).

| Substance | light scattering of peptide alone [2] | effect on Aβ aggregation (hydrodynamic diameter, total scattered intensity) (Aβ (1-40) [4]; 14 μM peptide) | effect on Aβ degradation by protease (Aβ (1-40) [5]) | interaction with Aβ (shift in cross-linked Aβ size distribution) (Aβ (1-40) [7]) | protection against Aβ toxicity ([3]; 10 μM peptide) | inhibition of ThT fluorescence increase (Aβ (1-40) [8]) | self-association by PICUP [9] | inhibition of Aβ toxicity (summary) [3] | further results |
| --- | --- | --- | --- | --- | --- | --- | --- | --- | --- |
| PRRYTIAALLSPYSWS [G16, 16-mer linear peptide, TTR residues 102-117, Y116W, reference compound] | scattered light above background | increased the size of aggregates of Aβ | Aβ degradation was delayed; also recorded: most effective in inhibiting degradation | interact with Aβ | – | – | – | – | effect on fraction of Aβ aggregates removable by filtration or sedimentation (Aβ (1-40) [1]): reduce the fraction of Aβ aggregates that can be removed by filtration or sedimentation; protection against Aβ toxicity ([3]; highest dose tested): small but significant protection; fold less effective than full-length TTR at protecting cells from Aβ toxicity (Aβ toxicity): about 25 fold; intensity of scattered light of Aβ-peptide mixture (Aβ (1-40) [4]; 14 μM peptide): enhanced the intensity of scattered light similarly; mean hydrodynamic size of Aβ-peptide mixture (Aβ (1-40) [4]; after 5 hr, 10:1 molar excess of Aβ, 37° C.): about 120 nm; morphology of Aβ aggregates by TEM (Aβ (1-40) [6]): still a large number of fibrils; interaction with freshly prepared versus pre-aggregated Aβ (Aβ (1-40) [7]; freshly prepared or 1 day pre-aggregated Aβ): showed no such selectivity; ThT fluorescence intensity of Aβ with peptide (Aβ (1-40) [8]; after 5 hr): remained low; ThT fluorescence intensity of Aβ with peptide (Aβ (1-40) [8]; after 24 hr): ThT-positive species were detected |
| PRRYTIAALLSPYSWSDYKDDDDK [GF, linear peptide G16 with a C-terminal FLAG tag] | – | little to no effect on Aβ aggregation | Aβ degradation was delayed | interact with Aβ | no protective effect | unable to inhibit the ThT fluorescence increase | some lower-molecular-weight multimers but none of the larger multimers | – | protection against Aβ toxicity ([3]; highest dose (40 μM)): modest protection |
| SKVVTPPRYTIAKLLSPYSYSQ (not fully specified; also: cyclic (type not given here)) [SEQ ID NO: 17] | – | – | – | – | – | – | significantly less self-association than SEQ ID NO: 1 | – | – |
| SKVVT^DPPRYTIAALLSPYSYSQ [LG3] (SKVVT[dP]PRYTIAALLSPYSYSQ) [non-cyclized 22-mer, TTR residues 104-123 grafted onto DPro-Pro template] | did not scatter light above background | little to no effect on Aβ aggregation | Aβ degradation was delayed | interact with Aβ; also recorded: weaker compared to CG3 | no protective effect | unable to inhibit the ThT fluorescence increase | – | – | – |
| SKV^DPPTIAALLSPYSYSQ [CG2] (cyclo(SKV[dP]PTIAALLSPYSYSQ)) [cyclic 18-mer of TTR residues 106-121 grafted onto DPro-Pro template] | – | did not affect Aβ aggregation; also recorded: nor did they affect Aβ aggregation | did not have any effect on the time course of degradation | do not show signs of interaction with Aβ | no protective effect | – | – | nor did they affect Aβ aggregation or inhibit Aβ toxicity | – |
| SKV^DPPTIAALLSPYSYSQ [LG2] (SKV[dP]PTIAALLSPYSYSQ) [non-cyclized 18-mer, TTR residues 106-121 grafted onto DPro-Pro template] | – | nor did they affect Aβ aggregation | – | do not show signs of interaction with Aβ | – | – | oligomer distribution was shifted towards lower molecular weight | nor did they affect Aβ aggregation or inhibit Aβ toxicity | – |
